Positions count from the first letter of the chain named. Names may count otherwise.
T1: MsRuvC WT (Mycobacterium smegmatis mc2 155) (UniProt A0QWH4)
T1 sequence: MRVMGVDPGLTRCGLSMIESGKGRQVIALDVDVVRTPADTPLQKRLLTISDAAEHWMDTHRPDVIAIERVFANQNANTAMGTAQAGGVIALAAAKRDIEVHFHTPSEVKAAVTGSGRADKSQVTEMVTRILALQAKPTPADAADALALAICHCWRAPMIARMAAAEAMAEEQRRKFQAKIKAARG

T2: MsRuvC-E68A (Mycobacterium smegmatis mc2 155, UniProt A0QWH4 1-185, E68A)
T2 sequence: T1 sequence with E68A

T3: MsRuvC-D7A (Mycobacterium smegmatis mc2 155, UniProt A0QWH4 1-185, D7A)
T3 sequence: T1 sequence with D7A

T4: MsRuvC WT (Mycobacterium smegmatis mc2 155, UniProt A0QWH4 1-185)
T4 sequence: T1 sequence

B1: Mobile HJ (MST) (structured_DNA)
DNA 1: GACGCTGCCGAATTCTACCAGTGCCTTGCTAGGACATCTTTGCCCACCTGCAGGTTCACCC
DNA 2: TGGGTGAACCTGCAGGTGGGCAAAGATGTCCTAGCAATGTAATCGTCAAGCTTTATGCCGTT
DNA 3: CAACGGCATAAAGCTTGACGATTACATTGCTAGGACATGCTGTCTAGAGGATCCGACTATCGA
DNA 4: ATCGATAGTCGGATCCTCTAGACAGCATGTCCTAGCAAGGCACTGGTAGAATTCGGCAGCGT
B2: Mycobacterium smegmatis RuvC (enzyme)
chain: T1 sequence
B3: MsRuvC-D7A (enzyme)
chain: T1 sequence with D7A
B4: MsRuvC-E68A (enzyme)
chain: T1 sequence with E68A

What was measured:
[1] = molecular target: T1, MsRuvC WT (Mycobacterium smegmatis mc2 155); assay: SPR
[2] = molecular target: T2, MsRuvC-E68A; assay: MST
[3] = molecular target: T3, MsRuvC-D7A; assay: MST
[4] = molecular target: T4, MsRuvC WT; assay: MST
[5] = molecular target: the molecule itself; assay: SEC

| Molecule | Kd [1] | stoichiometry N [5] | other results |
| --- | --- | --- | --- |
| 3'-flap structure (SPR) | 296 nM | – | – |
| 5'-flap structure | 410 nM | – | – |
| Replication fork | 203 nM | – | – |
| Splayed-arm duplex | 480 nM | – | – |
| dsDNA with 3'-ssDNA overhang | 263 nM | – | – |
| dsDNA with 5'-ssDNA overhang | 201 nM | – | – |
| B1 | – | – | Kd [2]: 300 ± 110 nM; Kd [3]: 650 ± 170 nM; Kd [4]: 580 ± 270 nM |
| B2 | – | 2 | – |
| B3 | – | 2 | – |
| B4 | – | 2 | – |

— paper PMC11466669 (The Journal of Biological Chemistry, 2024)
